This note sets out measurements from PMC7341897 (Nature cell biology, 2019).

One test addresses Survivin (UniProt O15392). Put plainly: fluorescent peptide partitioning into ISB coacervates. The following applies: reference: unmodified H3 peptide; sites T3.
Test [1] has as its target INCENP^1-58-Survivin-Borealin (ISB) complex, wild type (UniProt Q9NQS7 1-58; O15392 1-142; Q53HL2 1-280). In words: partitioning of a fluorescent client into preformed coacervates.
Test [2] addresses ISB complex lacking amino acids 139-160 of Borealin (UniProt Q9NQS7 1-58; O15392 1-142; Q53HL2 1-280, Δ139-160). The description is as above.

Turning to “histone H3 (synthetic N-terminal peptide) (from UniProt P68431) H3pT3 peptide”, the “binding against the reference” value in the test with Survivin is recorded as “stronger”.

B1: hSgo1^1-112 labeled with CF555 (domain or fragment, human, UniProt Q5FBB7 1-112, looked up)
chain: MAKERCLKKSFQDSLEDIKKRMKEKRNKNLAEIGKRRSFIAAPCQIITNTSTLLKNYQDNNKMLVLALENEKSKVKEAQDIILQLRKECYYLTCQLYALKGKLTSQQTVEPA
modifications: CF-555 label (Mix-n-Stain CF-555 labeling kit)
Turning to B1, the binding result in test [1] and in test [2] was “binds” throughout.
